Source: patent publication US20160145654A1

Legend:
[1] = target: human IgG from pooled human serum (Sigma-Aldrich); assay: ELISA of heated granules, human serum, anti-IgG-HRP
[2] = target: labeled mouse IgG2b monoclonal antibody conjugated to phycoerythrin; assay: FACS of particles with 10 µg/ml PE labeled mouse IgG2b mAb
[3] = target: labeled mouse IgG2b monoclonal antibody conjugated to phycoerythrin; assay: FACS of particles with 10 µg/mL PE labeled mouse IgG2b mAb
[4] = target: human IgG from pooled human serum (Sigma-Aldrich); assay: ELISA, granules coated on wells, pooled human serum, polyclonal anti-IgG-HRP, OPD

Substance: ZZ domain-PHA synthase fusion without signal peptide, on PHA granules (from UniProt P23608 1-589)
- binding capacity after heating for 15 min at 60° C. [1]: 60%
- fold more IgG bound per particle against particles from pBHR69-ZZ(-)phaC [2]: > 10 fold
- fold increased binding affinity against particles from pBHR69-ZZ(-)phaC (about 150 nm) [3]: 10 fold
- fold increase in absorption at 490 nm against wild type PHA granules [4]: > 2 fold
